The values that follow come from patent publication US20200040059A1.

Test [1] addresses T1, CD96 (UniProt P40200).
T1 sequence (looked up): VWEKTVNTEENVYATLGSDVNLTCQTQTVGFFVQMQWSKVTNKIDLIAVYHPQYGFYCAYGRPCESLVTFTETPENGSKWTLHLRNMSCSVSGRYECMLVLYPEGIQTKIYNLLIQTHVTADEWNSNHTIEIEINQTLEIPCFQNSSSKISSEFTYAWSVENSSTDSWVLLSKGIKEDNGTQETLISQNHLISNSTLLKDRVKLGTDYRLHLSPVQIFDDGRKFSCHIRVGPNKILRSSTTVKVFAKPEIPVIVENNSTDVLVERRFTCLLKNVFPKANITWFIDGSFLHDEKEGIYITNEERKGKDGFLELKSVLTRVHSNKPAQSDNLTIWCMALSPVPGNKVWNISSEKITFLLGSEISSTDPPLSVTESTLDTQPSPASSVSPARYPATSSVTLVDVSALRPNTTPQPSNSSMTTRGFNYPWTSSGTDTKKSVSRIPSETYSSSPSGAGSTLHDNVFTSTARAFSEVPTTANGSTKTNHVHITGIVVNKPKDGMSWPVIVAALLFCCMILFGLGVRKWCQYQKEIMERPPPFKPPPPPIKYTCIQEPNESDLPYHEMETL
Kind of test: flow cytometry, cells. A general note: Flow cytometry measures light scatter and fluorescence of single cells or particles in a stream.

In test [2] the target is T2, CD226 (human) (UniProt Q15762).
T2 sequence: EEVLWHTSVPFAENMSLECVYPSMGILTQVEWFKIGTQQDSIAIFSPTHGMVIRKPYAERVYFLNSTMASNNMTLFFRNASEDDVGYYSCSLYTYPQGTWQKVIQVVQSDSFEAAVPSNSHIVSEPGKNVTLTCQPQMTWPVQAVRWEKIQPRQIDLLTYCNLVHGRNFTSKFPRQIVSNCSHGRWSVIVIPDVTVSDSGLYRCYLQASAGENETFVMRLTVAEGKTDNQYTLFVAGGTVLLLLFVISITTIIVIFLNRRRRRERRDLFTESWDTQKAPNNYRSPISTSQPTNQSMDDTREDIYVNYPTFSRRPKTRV
As to the kind of experiment: flow cytometry, transfected cells.

For test [3], the target named is T1, CD96. As to the kind of experiment: flow cytometry, CD96-expressing cells.
Test [4] addresses T2, CD226 (human). Kind of test: flow cytometry, CD226-expressing cells.

Changes are numbered by the printed parent chain. Names may count otherwise.

B1: CD155 P18S, F91S, L104P IgV-Fc (Fc fusion, not shown: a dimerising Fc or GST; small tags and cut ends)
chain: PGTGDVVVQAPTQVSGFLGDSVTLPCYLQVPNMEVTHVSQLTWARHGESGSMAVFHQTQGPSYSESKRLEFVAARLGAELRNASLRMSGLRVEDEGNYTCPFVTFPQGSRSVDIWL
With B1, the MFI with CD96 [1] came to 10900; with CD226 (human) [2] it was 26200.

B2: CD155 P18T, S42P, F91S IgV-Fc (Fc fusion, not shown: a dimerising Fc or GST; small tags and cut ends)
chain: B1 chain with S15T, S39P, P101L
With B2, the MFI in the test with CD96 [1] was 135000; with CD226 (human) [2], 554000.

B3: CD155 A13E, P18S, A56V, F91S IgV-Fc (Fc fusion, not shown: a dimerising Fc or GST; small tags and cut ends)
chain: B1 chain with A10E, A53V, P101L
With B3, the MFI with CD96 [1] stood at 119000; with CD226 (human) [2], 358000.

B4: CD155 L44P IgV-Fc (Fc fusion, not shown: a dimerising Fc or GST; small tags and cut ends)
chain: B1 chain with S15P, L41P, S88F, P101L
Turning to B4, the MFI with CD96 [1] stood at 152000; in the test with CD226 (human) [2] it was 581000.

B5: CD155 A56V IgV-Fc (Fc fusion, not shown: a dimerising Fc or GST; small tags and cut ends)
chain: B1 chain with S15P, A53V, S88F, P101L
In the case of B5, the MFI in the test with CD96 [1] was found to be 161000; with CD226 (human) [2] it was 455000.

B6: CD155 P18T, F91S, F108L IgV-Fc (Fc fusion, not shown: a dimerising Fc or GST; small tags and cut ends)
chain: B1 chain with S15T, P101L, F105L
On to B6, for which the MFI with CD96 [1] came to 193000; with CD226 (human) [2], 395000.

B7: CD155 P18S, P64S, F91S IgV-Fc (Fc fusion, not shown: a dimerising Fc or GST; small tags and cut ends)
chain: B1 chain with P61S, P101L
Consider B7, for which the MFI with CD96 [1] came to 140000; with CD226 (human) [2], 498000.

B8: CD155 R94H IgV-Fc (Fc fusion, not shown: a dimerising Fc or GST; small tags and cut ends)
chain: B1 chain with S15P, S88F, R91H, P101L
Take B8: the MFI with CD96 [1] is 11700; with CD226 (human) [2], 18900.

B9: CD155 P18T, F91S, G111D IgV-Fc (Fc fusion, not shown: a dimerising Fc or GST; small tags and cut ends)
chain: B1 chain with S15T, P101L, G108D
Turning to B9, the MFI with CD96 [1] was 168000; with CD226 (human) [2] it was 438000.

B10: CD155 P18T, T45A, F91S IgV-Fc (Fc fusion, not shown: a dimerising Fc or GST; small tags and cut ends)
chain: B1 chain with S15T, T42A, P101L
In the case of B10, the MFI in the test with CD96 [1] is 191000; in the test with CD226 (human) [2], 436000.

B11: CD155 P18T, F91S, V115A IgV-Fc (Fc fusion, not shown: a dimerising Fc or GST; small tags and cut ends)
chain: B1 chain with S15T, P101L, V112A
As to B11, the MFI with CD96 [1] stood at 22700; in the test with CD226 (human) [2], 38500.

B12: CD155 P18T, Q60K IgV-Fc (Fc fusion, not shown: a dimerising Fc or GST; small tags and cut ends)
chain: B1 chain with S15T, Q57K, S88F, P101L
In the case of B12, the MFI in the test with CD96 [1] is 154000; with CD226 (human) [2] it was 238000.

B13: CD155 P18S, Y30C, F91S IgV-Fc (Fc fusion, not shown: a dimerising Fc or GST; small tags and cut ends)
chain: B1 chain with Y27C, P101L
As to B13, the MFI turned out to be 56900 with CD96 [1] and 382000 with CD226 (human) [2].

B14: CD155 L88P IgV-Fc (Fc fusion, not shown: a dimerising Fc or GST; small tags and cut ends)
chain: B1 chain with S15P, L85P, S88F, P101L
In the case of B14, the MFI in the test with CD96 [1] came to 35300; in the test with CD226 (human) [2], 65100.

B15: CD155 P18T, F91S IgV-Fc (Fc fusion, not shown: a dimerising Fc or GST; small tags and cut ends)
chain: B1 chain with S15T, P101L
B15: the MFI with CD96 [1] is 158000; with CD226 (human) [2], 401000.

B16: CD155 variant IgV-Fc P18T, M36T, S65A, S67E, L79Q, A81T, F91S, G111R (Fc fusion, not shown: a dimerising Fc or GST; small tags and cut ends)
chain: B1 chain with S15T, M33T, S62A, S64E, L76Q, A78T, P101L, G108R
For B16, the MFI at 11.1 nM with CD96 [3] was determined as 963 MFI; in the test with CD226 (human) [4] it was 1130 MFI.
